This passage reports Km results from patent US8129557B2, “Phosphonic acid diester derivative and method for producing thereof” (priority 2005, dated 2012).

The subject of this data set is T1, Cc1cc(=O)oc2cc(NC(=O)CC[C@H](N)C(=O)O)ccc12.
T1 construct: purchased Asahi Kasei Co., Ltd. HC-GTP (lot 603AA)
As to the kind of experiment: Hydrolytic assay of human GGT (Michaelis constant of substrate). The conditions noted are these: other: human GGT, substrate concentration 4.0 μM. In kind it is biochemical. The protocol: In the experiment, at first, Michaelis constants (Km) for 7-(γ-L-glutamylamino)-4-methylcoumarin as substrate were measured by a fluorescence method [Smith, G. D.; Ding, J. L.; Peters, T. J. Anal. Biochem. 100, 136-139 (1979)] for the hydrolytic activities of E-coli GGT and human GGT.
In the hydrolytic assay of human GGT, the measurement was carried out in the same manner as that in the hydrolytic assay of E-coli GGT, except that the substrate concentration was changed to […] and therefore, the explanation of the common portions was omitted.

human GGT (Homo sapiens), sequence (chain, as listed by the source): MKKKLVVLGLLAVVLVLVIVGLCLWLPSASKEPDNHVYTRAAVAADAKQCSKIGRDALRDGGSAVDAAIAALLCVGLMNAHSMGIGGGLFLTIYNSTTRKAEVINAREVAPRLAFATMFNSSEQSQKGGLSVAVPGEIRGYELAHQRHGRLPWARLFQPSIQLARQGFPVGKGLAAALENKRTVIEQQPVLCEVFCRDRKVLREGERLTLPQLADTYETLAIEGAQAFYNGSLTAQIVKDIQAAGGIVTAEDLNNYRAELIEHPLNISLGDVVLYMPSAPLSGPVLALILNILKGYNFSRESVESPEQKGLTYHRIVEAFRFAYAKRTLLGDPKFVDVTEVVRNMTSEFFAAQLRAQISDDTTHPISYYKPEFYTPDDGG
human GGT (Homo sapiens), sequence (chain, as listed by the source): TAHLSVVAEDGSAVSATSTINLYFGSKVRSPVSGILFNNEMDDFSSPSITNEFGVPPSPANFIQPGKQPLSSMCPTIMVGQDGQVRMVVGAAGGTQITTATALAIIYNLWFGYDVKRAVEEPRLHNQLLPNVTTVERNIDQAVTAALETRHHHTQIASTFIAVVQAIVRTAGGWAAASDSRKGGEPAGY

For human GGT (Homo sapiens), the Michaelis-Menten constant (Km) (usually the substrate concentration at which the rate is half of its maximum) was 12.6 µM.
